# Article PMC6804253, “Predicting and Experimentally Validating Hot-Spot Residues at Protein–Protein Interfaces” (ACS Chemical Biology, 2019)
# Numbering of substitutions follows the chain as printed.
# B1: 1DFJ DI431A (protein, UniProt P10775 1-456, looked up, variant D431A)
# Ribonuclease inhibitor: MNLDIHCEQLSDARWTELLPLLQQYEVVRLDDCGLTEEHCKDIGSALRANPSLTELCLRTNELGDAGVHLVLQGLQSPTCKIQKLSLQNCSLTEAGCGVLPSTLRSLPTLRELHLSDNPLGDAGLRLLCEGLLDPQCHLEKLQLEYCRLTAASCEPLASVLRATRALKELTVSNNDIGEAGARVLGQGLADSACQLETLRLENCGLTPANCKDLCGIVASQASLRELDLGSNGLGDAGIAELCPGLLSPASRLKTLWLWECDITASGCRDLCRVLQAKETLKELSLAGNKLGDEGARLLCESLLQPGCQLESLWVKSCSLTAACCQHVSLMLTQNKHLLELQLSSNKLGDSGIQELCQALSQPGTTLRVLCLGDCEVTNSGCSSLASLLLANRSLRELDLSNNCVGDPGVLQLLGSLEQPGCALEQLVLYATYWTEEVEDRLQALEGSKPGLRVIS
# B2: 1DFJ RI453A (protein, UniProt P10775 1-456, looked up, variant R453A)
# Ribonuclease inhibitor: B1 Ribonuclease inhibitor with A431D, R453A
# B3: 1KTZ RA25A (protein, UniProt P10600 301-412, looked up, variant R25A)
# Transforming growth factor …: ALDTNYCFRNLEENCCVRPLYIDFAQDLGWKWVHEPKGYYANFCSGPCPYLRSADTTHSTVLGLYNTLNPEASASPCCVPQDLEPLTILYYVGRTPKVEQLSNMVVKSCKCS
# B4: 1KTZ RA94A (protein, UniProt P10600 301-412, looked up, variant R94A)
# Transforming growth factor …: B3 Transforming growth factor … with A25R, R94A
# B5: 1JRH KI47A (protein, UniProt P15260 18-245, looked up, variant K47A)
# extracellular domain: EMGTADLGPSSVPTPTNVTIESYNMNPIVYWEYQIMPQVPVFTVEVANYGVKNSEWIDACINISHHYCNISDHVGDPSNSLWVRVKARVGQKESAYAKSEEFAVCRDGKIGPPKLDIRKEEKQIMIDIFHPSVFVNGDEQEVDYDPETTCYIRVYNVYVRMNGSEIQYKILTQKEDDCDEIQCQLAIPVSSLNSQYCVSAEGVLHVWGVTTEKSKEVCITIFNSSIKG
# modifications: extracellular domain
# B6: 1JRH RI84A (protein, UniProt P15260 18-245, looked up, variant R84A)
# extracellular domain: B5 extracellular domain with A47K, R84A
# modifications: extracellular domain
# B7: 1JRH KI52A (protein, UniProt P15260 18-245, looked up, variant K52A)
# extracellular domain: B5 extracellular domain with A47K, K52A
# modifications: extracellular domain
# B8: 1JRH KI98A (protein, UniProt P15260 18-245, looked up, variant K98A)
# extracellular domain: B5 extracellular domain with A47K, K98A
# modifications: extracellular domain
# B9: 1A22 IB305A (protein, UniProt P10912 19-264, looked up, variant I105A)
# extracellular domain: FSGSEATAAILSRAPWSLQSVNPGLKTNSSKEPKFTKCRSPERETFSCHWTDEVHHGTKNLGPIQLFYTRRNTQEWTQEWKECPDYVSAGENSCYFNSSFTSIWAPYCIKLTSNGGTVDEKCFSVDEIVQPDPPIALNWTLLNVSLTGIHADIQVRWEAPRNADIQKGWMVLEYELQYKEVNETKWKMMDPILTTSVPVYSLKVDKEYEVRVRSKQRNSGNYGEFSEVLYVTLPQMSQFTCEEDFY
# modifications: extracellular domain
# B10: 2PCC DA34A (protein, UniProt P00431 68-361, looked up, variant D34A)
# Cytochrome c peroxidase, …: TTPLVHVASVEKGRSYEDFQKVYNAIALKLREDAEYDNYIGYGPVLVRLAWHTSGTWDKHDNTGGSYGGTYRFKKEFNDPSNAGLQNGFKFLEPIHKEFPWISSGDLFSLGGVTAVQEMQGPKIPWRCGRVDTPEDTTPDNGRLPDADKDADYVRTFFQRLNMNDREVVALMGAHALGKTHLKNSGYEGPWGAANNVFTNEFYLNLLNEDWKLEKNDANNEQWDSKSGYMMLPTDYSLIQDPKYLSIVKEYANDQDKFFKDFSKAFEKLLENGITFPKDAPSPFIFKTLEEQGL
# B11: 2PCC EA290A (protein, UniProt P00431 68-361, looked up, variant E290A)
# Cytochrome c peroxidase, …: B10 Cytochrome c peroxidase, … with A34D, E290A
# B12: 1EMV DA26A (protein, UniProt P13479 1-86, looked up, variant D26A)
# Colicin-E9 immunity protein: MELKHSISDYTEAEFLQLVTTICNAATSSEEELVKLVTHFEEMTEHPSGSDLIYYPKEGDDDSPSGIVNTVKQWRAANGKSGFKQG
# B13: 1EMV EA41A (protein, UniProt P13479 1-86, looked up, variant E41A)
# Colicin-E9 immunity protein: B12 Colicin-E9 immunity protein with A26D, E41A
# B14: 1EMV EA31A (protein, UniProt P13479 1-86, looked up, variant E31A)
# Colicin-E9 immunity protein: B12 Colicin-E9 immunity protein with A26D, E31A
# B15: 1EMV EA32A (protein, UniProt P13479 1-86, looked up, variant E32A)
# Colicin-E9 immunity protein: B12 Colicin-E9 immunity protein with A26D, E32A
# B16: 1EMV DA51A (protein, UniProt P13479 1-86, looked up, variant D51A)
# Colicin-E9 immunity protein: B12 Colicin-E9 immunity protein with A26D, D51A
# B17: 1EMV DA60A (protein, UniProt P13479 1-86, looked up, variant D60A)
# Colicin-E9 immunity protein: B12 Colicin-E9 immunity protein with A26D, D60A
# B18: 1EMV HA46A (protein, UniProt P13479 1-86, looked up, variant H46A)
# Colicin-E9 immunity protein: B12 Colicin-E9 immunity protein with A26D, H46A
# B19: 1IAR EA19A (protein, UniProt P05112 25-153, looked up, variant E19A)
# Interleukin-4: HKCDITLQEIIKTLNSLTAQKTLCTELTVTDIFAASKNTTEKETFCRAATVLRQFYSHHEKDTRCLGATAQQFHRHKQLIRFLKRLDRNLWGLAGLNSCPVKEANQSTLENFLERLKTIMREKYSKCSS
# B20: 1IAR RA81A (protein, UniProt P05112 25-153, looked up, variant R81A)
# Interleukin-4: B19 Interleukin-4 with A19E, R81A
# B21: 1IAR KA77A (protein, UniProt P05112 25-153, looked up, variant K77A)
# Interleukin-4: B19 Interleukin-4 with A19E, K77A
# B22: 1IAR KA84A (protein, UniProt P05112 25-153, looked up, variant K84A)
# Interleukin-4: B19 Interleukin-4 with A19E, K84A
# B23: 1IAR RA85A (protein, UniProt P05112 25-153, looked up, variant R85A)
# Interleukin-4: B19 Interleukin-4 with A19E, R85A
# B24: 1A22 EB291A (protein, UniProt P10912 19-264, looked up, variant E91A)
# extracellular domain: B9 extracellular domain with E91A, A105I
# modifications: extracellular domain
# System: PPIs of the SKEMPI data set (by PDBID)
# Assay: not given
# Details: SKEMPI experimental ΔΔG of binding, single mutation to alanine; complex by PDBID; ref SKEMPI; cited from earlier work
row,Molecule,sk_ddG_kJ [kJ]
1,B1,15.31
2,B2,3.56

# Same assay, conditions: sheet sortedByGroup, r_group DERKH; complex given by PDBID; ref SKEMPI; cited from earlier work
row,Molecule,"sk_ddG_kJ (SKEMPI experimental ΔΔG, single mutation to alanine) [kJ]"
1,B3,6.19
2,B4,12.05
3,B5,16.11
4,B6,4.31
5,B7,15.86
6,B8,2.80

# Same assay, conditions: single mutation to alanine in the complex of the given PDBID; ref SKEMPI; cited from earlier work
row,Molecule,"sk_ddG_kJ (SKEMPI experimental ΔΔG of binding, mutation to alanine) [kJ]"
1,B9,0.54
2,B10,-3.81
3,B11,25.90

# Same assay, conditions: single mutation to alanine, complex by PDBID; sheet sortedByGroup, r_group DERKH; ref SKEMPI; cited from earlier work
row,Molecule,"sk_ddG_kJ (SKEMPI experimental ΔΔG, mutation to alanine) [kJ]"
1,B12,1.42
2,B13,8.70
3,B14,1.30
4,B15,0.92
5,B16,24.77
6,B17,2.13
7,B18,3.47
8,B19,-1.34
9,B20,2.01
10,B21,0.63
11,B22,1.46
12,B23,1.80

# Same assay, conditions: single mutation to alanine; PPI given by PDBID; sheet sortedByGroup, r_group DERKH; ref SKEMPI; cited from earlier work
row,Molecule,"sk_ddG_kJ (SKEMPI experimental ΔΔG, mutation to alanine) [kJ]"
1,B24,0.75

# System: PPIs of the SKEMPI data set (by PDBID)
# Assay: SKEMPI experimental ΔΔG, single mutations to alanine
# Format: binding
# Details: Positive / Neutral / Negative by ΔΔG threshold 4.184 kJ/mol; ref SKEMPI
row,Molecule,sk_class (class of the SKEMPI experimental ΔΔG)
1,B9,Neutral (neutral (little effect) 4.184 kJ/mol < ΔΔG > −4.184 kJ/mol)
2,B10,Neutral (neutral (little effect) 4.184 kJ/mol < ΔΔG > −4.184 kJ/mol)
3,B11,Positive (positive (a hot residue) ΔΔG ≥ 4.184 kJ/mol)

# Same assay, conditions: class by the 4.184 kJ/mol threshold; r_group DERKH
row,Molecule,sk_class (class of the SKEMPI experimental ΔΔG)
1,B12,Neutral (neutral (little effect) 4.184 kJ/mol < ΔΔG > −4.184 kJ/mol)
2,B13,Positive (positive (a hot residue) ΔΔG ≥ 4.184 kJ/mol)
3,B14,Neutral (neutral (little effect) 4.184 kJ/mol < ΔΔG > −4.184 kJ/mol)
4,B15,Neutral (neutral (little effect) 4.184 kJ/mol < ΔΔG > −4.184 kJ/mol)
5,B16,Positive (positive (a hot residue) ΔΔG ≥ 4.184 kJ/mol)
6,B17,Neutral (neutral (little effect) 4.184 kJ/mol < ΔΔG > −4.184 kJ/mol)
7,B18,Neutral (neutral (little effect) 4.184 kJ/mol < ΔΔG > −4.184 kJ/mol)
8,B19,Neutral (neutral (little effect) 4.184 kJ/mol < ΔΔG > −4.184 kJ/mol)
9,B20,Neutral (neutral (little effect) 4.184 kJ/mol < ΔΔG > −4.184 kJ/mol)
10,B21,Neutral (neutral (little effect) 4.184 kJ/mol < ΔΔG > −4.184 kJ/mol)
11,B22,Neutral (neutral (little effect) 4.184 kJ/mol < ΔΔG > −4.184 kJ/mol)
12,B23,Neutral (neutral (little effect) 4.184 kJ/mol < ΔΔG > −4.184 kJ/mol)

# Same assay, conditions: class by ΔΔG threshold 4.184 kJ/mol; ref SKEMPI
row,Molecule,sk_class (class of the SKEMPI experimental ΔΔG)
1,B24,Neutral (neutral (little effect) 4.184 kJ/mol < ΔΔG > −4.184 kJ/mol)

# Same assay, conditions: class of the SKEMPI experimental ΔΔG
row,Molecule,sk_class
1,B3,Positive (positive (a hot residue) ΔΔG ≥ 4.184 kJ/mol)
2,B4,Positive (positive (a hot residue) ΔΔG ≥ 4.184 kJ/mol)
3,B5,Positive (positive (a hot residue) ΔΔG ≥ 4.184 kJ/mol)
4,B6,Positive (positive (a hot residue) ΔΔG ≥ 4.184 kJ/mol)
5,B7,Positive (positive (a hot residue) ΔΔG ≥ 4.184 kJ/mol)
6,B8,Neutral (neutral (little effect) 4.184 kJ/mol < ΔΔG > −4.184 kJ/mol)

# Same assay, conditions: class of the SKEMPI experimental ΔΔG; ref SKEMPI
row,Molecule,sk_class
1,B1,Positive (positive (a hot residue) ΔΔG ≥ 4.184 kJ/mol)
2,B2,Neutral (neutral (little effect) 4.184 kJ/mol < ΔΔG > −4.184 kJ/mol)
